According to patent publication US20120316071A1 (published 2012):

Columns and labels:
[1] = biological target: T1, rHuman IGF-1 sR, (IGF-1 sR), CF (R&D Systems Cat#391-GR) (human, UniProt P08069 31-932); test: MSD multispot ECL, antigen spotted on plate, Fab 176.3 nM; blank spot 346
T1 construct: Bought from R&D Systems and called a soluble receptor; also called insulin-like growth factor-1 soluble receptor

[2] = biological target: T2, rHuman P-Cadherin/Fc Chimera, CF (R&D Systems Cat#861-PC) (human, UniProt P22223 108-654); test: as above
T2 construct: Bought from R&D Systems; not shown: Fc of the bought chimera

[3] = biological target: T3, rHuman HGF R/c-MET/Fc Chimera, CF (R&D Systems Cat#358-MT/CF) (human, UniProt P08581 25-932); test: as above
T3 construct: Bought from R&D Systems; also called HGF R/Fc; hepatocyte growth factor receptor (HGF R/c-Met); not shown: Fc of the bought chimera

[4] = biological target: T4, rHuman Notch-1/Fc Chimera, CF (R&D Systems Cat#3647-TK) (human, UniProt P46531 19-526); test: as above
T4 construct: Bought from R&D Systems; not shown: Fc of the bought chimera

[5] = biological target: T5, rHuman Erythropoietin R/Fc Chimera, CF (R&D Systems Cat#963-ER) (human, UniProt P19235 25-250); test: Multispot ECL (MSD) assay, antigen spotted on plate, Fab at 0.312 µM; blank spot 1977
T5 construct: Bought recombinant protein; also called EPO R/Fc; Epo R; Fc part of the bought chimera not given
T5 sequence (looked up): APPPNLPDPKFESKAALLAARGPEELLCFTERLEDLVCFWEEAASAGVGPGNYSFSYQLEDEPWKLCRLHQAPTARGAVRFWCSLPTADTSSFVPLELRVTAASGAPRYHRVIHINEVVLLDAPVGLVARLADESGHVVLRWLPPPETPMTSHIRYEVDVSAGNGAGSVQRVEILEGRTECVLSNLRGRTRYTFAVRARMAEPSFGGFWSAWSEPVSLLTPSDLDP

[6] = biological target: T6, rHuman ErbB2/Fc Chimera, CF (R&D Systems Cat#1129-ER) (human, UniProt P04626 23-652); test: as above
T6 construct: Bought recombinant protein; also called human epidermal growth factor 2 receptor (ErbB2); Fc part of the bought chimera not given

[7] = biological target: T7, rHuman CD44/Fc Chimera, CF (R&D Systems Cat#3660-CD) (human, UniProt P16070 21-220); test: as above
T7 construct: Bought recombinant protein; Fc part of the bought chimera not given

[8] = biological target: T8, rHuman HGF R/c-MET/Fc Chimera, CF (R&D Systems Cat#358-MT/CF) (human, UniProt P08581 25-932); test: as above
T8 construct: Bought recombinant protein; also called HGF R/Fc; hepatocyte growth factor receptor (HGF R/c-Met); Fc part of the bought chimera not given

[9] = biological target: T9, rHuman IGF-1 sR, (IGF-1 sR), CF (R&D Systems Cat#391-GR) (human, UniProt P08069 31-932); test: as above
T9 construct: Bought recombinant soluble receptor; also called insulin-like growth factor-1 soluble receptor

[10] = biological target: T10, Recombinant Human DLL4 (R&D Systems Cat#1506-D4/CF) (human, UniProt Q9NR61 27-524); test: MSD multispot ECL, antigen spotted on plate; Fab 0.03188 uM; blank spot 536
T10 construct: Bought recombinant protein; also called delta-like protein 4; rHuman DLL4

[11] = biological target: T11, rHuman HGF R/c-MET/Fc Chimera, CF (R&D Systems Cat#358-MT/CF) (human, UniProt P08581 25-932); test: as above
T11 construct: Bought recombinant protein; also called HGF R/Fc; hepatocyte growth factor receptor; Fc part of the bought chimera not given

[12] = biological target: T12, rHuman ErbB2/Fc Chimera, CF (R&D Systems Cat#1129-ER) (human, UniProt P04626 23-652); test: as above
T12 construct: Bought recombinant protein; also called human epidermal growth factor 2 receptor; Fc part of the bought chimera not given

[13] = biological target: T13, rHuman Notch-1/Fc Chimera, CF (R&D Systems Cat#3647-TK) (human, UniProt P46531 19-526); test: as above
T13 construct: Bought recombinant protein; Fc part of the bought chimera not given

[14] = biological target: T14, rHuman CD44/Fc Chimera, CF (R&D Systems Cat#3660-CD) (human, UniProt P16070 21-220); test: as above
T14 construct: Bought recombinant protein; Fc part of the bought chimera not given

[15] = biological target: T15, rHuman IGF-1 sR, CF (R&D Systems Cat#391-GR) (human, UniProt P08069 31-932); test: as above
T15 construct: Bought recombinant soluble receptor; also called insulin-like growth factor-1 soluble receptor

[16] = biological target: T16, rHuman P-Cadherin/Fc Chimera, CF (R&D Systems Cat#861-PC) (human, UniProt P22223 108-654); test: as above
T16 construct: Bought recombinant protein; Fc part of the bought chimera not given

[17] = biological target: T17, rHuman Erythropoietin R/Fc Chimera, CF (R&D Systems Cat#963-ER) (human, UniProt P19235 25-250); test: as above
T17 construct: Bought recombinant protein; also called EPO R/Fc; Epo R; Fc part of the bought chimera not given
T17 sequence (looked up): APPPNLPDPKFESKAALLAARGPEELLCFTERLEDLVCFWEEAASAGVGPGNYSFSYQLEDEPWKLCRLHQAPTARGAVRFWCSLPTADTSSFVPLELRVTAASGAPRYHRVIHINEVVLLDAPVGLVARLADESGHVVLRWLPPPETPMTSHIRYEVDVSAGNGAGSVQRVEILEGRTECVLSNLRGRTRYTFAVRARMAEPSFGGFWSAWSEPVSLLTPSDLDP

[18] = biological target: T18, rHuman EGF R/Fc Chimera, CF (R&D Systems Cat#344-ER) (human, UniProt P00533 25-645); test: as above
T18 construct: Bought recombinant protein; also called epidermal growth factor receptor; Fc part of the bought chimera not given

B1: Fab VH1-46_IGHD3-10*01_IGHJ4*01 & B3_IGKJ1*01 (Fab, V domains shown)
VH: QVQLVQSGAEVKKPGASVKVSCKASGYTFTSYYMHWVRQAPGQGLEWMGIINPSGGSTSYAQKFQGRVTMTRDTSTSTVYMELSSLRSEDTAVYYCAREYYYGSGSYYNDYFDYWGQGTLVTVSS
VL: not shown
notes: Tested as a Fab made in E. coli; VH was cloned into Plasmid A (CH1 constant region, His6 and Flag tags); The kappa VL was cloned into Plasmid C (kappa CL)
In the case of B1, the ECL signal [1] is reported as 393, the ECL signal [2] is reported as 532 and the ECL signal [3] is reported as 418. The ECL signal [4] was 664.

B2: Fab VH1-46_IGHD7-27*01_IGHJ2*01 & L6_IGKJ1*01 (Fab, V domains shown)
VH: QVQLVQSGAEVKKPGASVKVSCKASGYTFTSYYMHWVRQAPGQGLEWMGIINPSGGSTSYAQKFQGRVTMTRDTSTSTVYMELSSLRSEDTAVYYCARANWGYWYFDLWGRGTLVTVSS
VL: not shown
notes: Germline Fab made in E. coli; VH was cloned in Plasmid A (CH1 constant region, His6 and Flag tags) and the kappa VL in Plasmid C (kappa CL); Only the variable domains are tied to this Fab by name
B2 was tested, and the ECL signal [5] was 5020, the ECL signal [6] was 3660 and the ECL signal [7] was 4170. For the same binder, the ECL signal [8] was 4690 and the ECL signal [9] was 3510.

B3: Fab VH4-34_IGHD7-27*01_IGHJ4*01 & L5_IGKJ1*01 (Fab, V domains shown)
VH: QVQLQQWGAGLLKPSETLSLTCAVYGGSFSGYYWSWIRQPPGKGLEWIGEINHSGSTNYNPSLKSRVTISVDTSKNQFSLKLSSVTAADTAVYYCARANWGDYFDYWGQGTLVTVSS
VL: DIQMTQSPSSVSASVGDRVTITCRASQGISSWLAWYQQKPGKAPKLLIYAASSLQSGVPSRFSGSGSGTDFTLTISSLQPEDFATYYCQQANSFPPWTFGQGTKVEIKR
notes: Germline library Fab expressed in E. coli; VH was cloned into Plasmid A, which adds CH1 with His6 and Flag tags
With B3 the ECL signal [10] was 1280, the ECL signal [11] was 693 and the ECL signal [12] was 584. For the same binder, the ECL signal [13] was 849, the ECL signal [14] was 653 and the ECL signal [15] was 765. It also gave an ECL signal [16] of 775, an ECL signal [17] of 789 and an ECL signal [18] of 694.
